Assay results taken from the supplement of paper PMC9170038.

Test system: MS2 coat protein
Assay: apparent KD of MS2 coat protein; designed switch direction (-1 OFF switch, 1 ON switch): -1; higher = weaker reporter binding
Outline: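 Stalled E. coli RNA polymerase transcribed designed RNA switches on Illumina chips, which were then titrated with SNAP-549-labelled MS2 coat protein, doubling from 0.7 or 1.5 nM to 3 µM. Steps lasted from 0.8–1.5 h at the lowest concentration to 10–20 min at the highest. The apparent KD is each design's median over clusters of curve-fitted normalised fluorescence.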

[1] = Eterna round: R95, input ligand: microRNA oligo, concentration not stated
[2] = Eterna round: R95, input ligand: FMN 200 uM
[3] = Eterna round: R95, input ligand: none
[4] = input ligand: microRNA oligo, concentration not stated

In the case of “AAGAAACAUGAGGAUCACCCAUGUGAGGAUAUGUAAAAUAAAAUAAAAUAAAUAAUAAACAGAAGGCACAAAGG [Mat - Mod of Hog D17] (puzzle: Exclusion 1)”, the “apparent KD of MS2 coat protein” value [1] was 58.6 nM.

For “AAGAAAGGUGACAUGGGCGACAUGAGGAUCACCCAUGUUACAAGCUUGUUGCUCGUCUUAUAAUUAACCCAUGUCAC [LRO Sensor-off var1-21 mod of Stov1-13-A1 by Brourd] (Eterna round: R97, puzzle: Sensor, turn-off variant 1)”, the “apparent KD of MS2 coat protein” value (input ligand: FMN 200 uM) was 16.1 nM and the “apparent KD of MS2 coat protein” value (input ligand: none) was 17.9 nM.

With “AAGAAGAAACAAGCUUUUUGCUCGUCUUAUAGUGACGCAACAUGAGGAUCACCCAUGUAUAGGAUGAGGGUGGAUAG [JR_SV3TOV2_Sub046] (puzzle: Sensor v3, turn-off variant 2)” the “apparent KD of MS2 coat protein” value [2] was 76.9 nM, the “apparent KD of MS2 coat protein” value [1] was 324 nM and the “apparent KD of MS2 coat protein” value [3] was 72 nM.

For “AAGAAGAAGUAAGGAUAUGAAGAUUUGGUGAUAACAUGAGGAUCACCCAUGUGAAAACAAUAAAAUCAGAAGGUAUAAGAAGAA [AK ExNG2-2] (Eterna round: R96, puzzle: Exclusion NG 2)”, the “apparent KD of MS2 coat protein” value (input ligand: FMN 200 uM) was 57.6 nM, the “apparent KD of MS2 coat protein” value [4] was 37.3 nM and the “apparent KD of MS2 coat protein” value (input ligand: none) was 58 nM.

In the case of “AAGAAGAUCGGAGGAUAUGGAGCUGAAACGGCGCUAGAAGGCCGUCUAGUGUAACAUGAGGAUCACCCAUGUAGGGACCUCUAA [EX ng 1 4.2] (Eterna round: R96, puzzle: Exclusion NG 1)”, the “apparent KD of MS2 coat protein” value (input ligand: FMN 200 uM) was 944 nM, the “apparent KD of MS2 coat protein” value [4] was 633 nM and the “apparent KD of MS2 coat protein” value (input ligand: none) was 558 nM.

With “AAGAAGCAAGGAUAUACAGAGGAGAGGAAAGCAAGAGGAGGACAUGAGGAUCACCCAUGUAGAAGGUGCAGAGA [JR_Exclu2_Sub019] (puzzle: Exclusion 2)” the “apparent KD of MS2 coat protein” value [2] was 67.4 nM, the “apparent KD of MS2 coat protein” value [1] was 68.8 nM and the “apparent KD of MS2 coat protein” value [3] was 63.5 nM.

In the case of “AAGAAUGAAGGAUAUACAUGAGGAUCACCCAUGUAAAAAAAAUUUUUUAGUUUUUCAUGUAGAAGGUCAAGAAG [JR_Exclusion3_Sub001] (puzzle: Exclusion 3)”, the “apparent KD of MS2 coat protein” value [2] was 47.9 nM, the “apparent KD of MS2 coat protein” value [1] was 41.8 nM and the “apparent KD of MS2 coat protein” value [3] was 43.6 nM.

For “AAGACACAUGAGGAUCACCCAUGUGAGGAUAUUUGAUGCGUACCUACAGGACUGCGAUAAAGAAGGCAUAAGGG [Eternabot (L2) Solution 80] (Eterna round: R97, puzzle: Exclusion 1)”, the “apparent KD of MS2 coat protein” value (input ligand: FMN 200 uM) was 50.3 nM and the “apparent KD of MS2 coat protein” value (input ligand: none) was 17.7 nM.

For “AAGAGCAUCGGAGGAUAUGGAGCUGAAACGGCGCUAGAAGGCCGUGCAGUGUAACAUGAGGAUCACCCAUGUAGGGACCUCUAA [EX ng 1 4] (Eterna round: R96, puzzle: Exclusion NG 1)”, the “apparent KD of MS2 coat protein” value (input ligand: FMN 200 uM) was 244 nM, the “apparent KD of MS2 coat protein” value [4] was 82.9 nM and the “apparent KD of MS2 coat protein” value (input ligand: none) was 104 nM.

For “AAGAGGUCAGGAUAUACAGGAAGAGAGAGAAGUAGAGGGUAACAUGAGGAUCACCCAUGUAGAAGGGACUAAGA [JR_Exclu2_Sub071] (puzzle: Exclusion 2)”, the “apparent KD of MS2 coat protein” value [2] was 67.9 nM, the “apparent KD of MS2 coat protein” value [1] was 48.5 nM and the “apparent KD of MS2 coat protein” value [3] was 63.1 nM.

In the case of “AAGAGUGCAGGAUAUACUUGGUAGGGUAAGAUGAGUGAGUGACAUGAGGAUCACCCAUGUAGAAGGGCAGAGAG [JR_Exclu2_Sub056] (puzzle: Exclusion 2)”, the “apparent KD of MS2 coat protein” value [1] was 107 nM.

For “AAGAUACAUGAGGAUCACCCAUGUGAGGAUAUCAGCACGACCGUGAGGUCGAUAAGAAUGAGAAGGCACAAUGG [JL-ex1-4.51] (Eterna round: R97, puzzle: Exclusion 1)”, the “apparent KD of MS2 coat protein” value (input ligand: FMN 200 uM) was 103 nM and the “apparent KD of MS2 coat protein” value (input ligand: none) was 279 nM.
